Laboratory results from article PMC6373967.
Where two headings read alike, the source gives them in different places.

Tests used:
[1] = target: nectin-1(346t) (human) (UniProt Q15223); assay: SPR; BIAcore 3000, 25°C, HBS-EP pH 7.4; about 2000 RU of nectin-1(346t) or nectin-1(143t) amine-coupled to a CM5 chip; hCD96t flowed at 50 ul/min, 2 min association and 2 min dissociation; 1:1 Langmuir model with drifting baseline, global fit
[2] = target: nectin-1(346t) (human) (UniProt Q15223); assay: as above; remark: listed apart in the source
[3] = target: nectin-1(143t) (human); assay: as above
[4] = target: CD155 (Homo sapiens) (UniProt P15151); conditions: cited from earlier work
[5] = target: nectin-1 (Homo sapiens) (UniProt Q15223); conditions: cited from earlier work

Sequence of UniProt P15151 (P15151 21-343): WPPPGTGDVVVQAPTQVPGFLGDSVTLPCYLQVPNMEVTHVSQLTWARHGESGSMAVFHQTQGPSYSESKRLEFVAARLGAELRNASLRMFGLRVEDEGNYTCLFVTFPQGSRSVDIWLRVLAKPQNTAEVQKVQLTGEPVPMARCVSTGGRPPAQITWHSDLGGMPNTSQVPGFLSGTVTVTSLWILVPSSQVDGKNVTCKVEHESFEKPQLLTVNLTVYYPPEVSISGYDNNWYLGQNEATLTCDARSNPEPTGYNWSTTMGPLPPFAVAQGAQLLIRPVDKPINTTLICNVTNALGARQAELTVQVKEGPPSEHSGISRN
Sequence of nectin-1 (Q15223 31-355): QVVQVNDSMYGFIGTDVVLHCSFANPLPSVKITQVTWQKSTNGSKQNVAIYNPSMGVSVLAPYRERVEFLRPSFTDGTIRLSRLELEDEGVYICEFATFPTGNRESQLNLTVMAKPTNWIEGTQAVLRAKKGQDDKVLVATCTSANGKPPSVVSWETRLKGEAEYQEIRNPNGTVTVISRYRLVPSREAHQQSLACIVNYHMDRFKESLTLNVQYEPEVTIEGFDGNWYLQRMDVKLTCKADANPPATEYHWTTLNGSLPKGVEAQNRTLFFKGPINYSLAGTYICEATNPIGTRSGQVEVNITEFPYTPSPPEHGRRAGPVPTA

With hCD96(516t) (domain or fragment) the Kd [1] was 2340 nM, the Kd [2] was 2430 nM and the koff [2] was 0.0094 s⁻¹. The kon [2] was 3900 M⁻¹ s⁻¹, the Kd [3] was 3220 nM and the koff [3] was 0.012 s⁻¹. It also gave a kon [3] of 3200 M⁻¹ s⁻¹.
In the case of CD96 (from UniProt P40200), the Kd [4] is given as 37.6 nM.
For nectin-1 (from UniProt Q15223), the Kd [5] is listed as 17500 nM.
